Source: US9809627B2, “Cyclized transthyretin peptide and methods of use therefor” (Wisconsin Alumni Research Foundation, priority 2014, dated 2017)
“Also recorded” adds a separate entry of the source. Where no end group is shown, it is not given here. [ ]: non-standard residue; d: D form.

Columns and labels:
Aβ (1-40) [1] = molecular target: T1, Aβ (1-40) (Homo sapiens, UniProt P05067); assay: Photoinduced cross-linking (PICUP) of Aβ and peptides; assay type: binding
T1 construct: Aβ (1-40) was purchased from Anaspec, Inc. (Fremont, Calif.) as lyophilized powder; purchased Anaspec, Inc. (Fremont, Calif.)
Description: (§1) Aβ (1-40) was purchased from Anaspec, Inc. (Fremont, Calif.) as lyophilized powder. For dynamic light scattering, ThT fluorescence assay, TEM, NTA measurement and filtration/sedimentation assay, Aβ was dissolved in 50% ACN, re-lyophilized, and reconstituted in 8M urea at 12 mg/mL. Aβ stock was then aliquoted, snap-frozen in ethanol with dry ice, and stored at −80° C. For PICUP and proteolytic fragmentation analysis, lyophilized Aβ was dissolved in prechilled hexafluoroisopropanol (HFIP, Acros Organics, Geel, Belgium), aliquoted, dried and stored at −20° C. as previously described (Cho et al., 2014). Aβ sample was prepared right before use by dissolving dried peptides in 50 mM NaOH and diluting into phosphate-buffered saline (PBSA) (10 mM Na2HPO4/NaH2PO4, 150 mM NaCL and 0.02% NaN3 (pH 7.4)) to 30 μM as previously described (Cho et al., 2014).
Aβ prepared with HFIP/NaOH treatment at 30 μM as described was mixed with peptides to a final concentration of 24 μM Aβ and 2.4 μM peptides. Aβ stock was used immediately (freshly prepared) or after incubation for 24 hr at 37° C. (1 day pre-aggregated). Samples of Aβ with and without peptides were incubated for 1 hr at 37° C. and cross-linked by photo-induced cross-linking method as previously described (Cho et al., 2014). Cross-linked samples were then separated on a 10-20% Tris-Tricine gradient gel (Iinvotrogen, Carlsbad, Calif.), transferred onto a 0.2 μm poly(vinylidene difluoride) (PVDF) membrane and detected by monoclonal mouse anti-Aβ antibody 4G8 (Covance, Princeton, N.J.) as previously described (Cho et al., 2014).

Aβ (1-40) [2] = molecular target: T1, Aβ (1-40); assay: Nanoparticle tracking (NTA) of Aβ aggregates; assay type: biochemical; settings: 28 μM Aβ, 10:1 Aβ:peptide molar ratio
Description: as §1
NTA measurements were taken with a Nanosight LM10 (Nanosight, Amesbury, U.K.) equipped with a 405 nm laser as previously described (Yang et al., 2013). Aβ alone (28 μM) or with CG3 (2.8 μM) were prepared in PBSA and incubated for 5 hr at 37° C. Three 60 s video were taken for each sample.

Aβ (1-40) [3] = molecular target: T1, Aβ (1-40); assay: Dynamic light scattering of Aβ aggregate growth; assay type: biochemical; settings: 140 μM Aβ
Description: as §1
Aβ stock in 8M urea prepared as stated above was thawed and sonicated for 2 min before being diluted into PBSA. Aβ alone (140 μM) or mixed with peptides (14 μM) was filtered through […] filter directly into a light scattering cuvette and placed into a bath of the index-matching solvent decahydronaphthalene with temperature controlled to 37° C. Light scattering data were collected using a Brookhaven BI-200SM system (Brookhaven Instruments Corp., Holtsville, N.Y.) and an Innova 90C-5 argon laser (Coherent, Santa Clara, Calif.) operating at 488 nm and 150 mW. The average scattering intensity at 90° was measured over 10 hr and data were normalized to the total mass concentration. The z-averaged hydrodynamic diameter was determined from the autocorrelation function using the method of cummulants.

[4] = Peptide self-aggregation by light scattering; assay type: physicochemical; settings: 80 μM, 37° C., after 1 hr of incubation
Description: To further probe for self-aggregation, G16, LG3, and CG3 were incubated at 80 μM at 37° C. and analyzed by light scattering.

[5] = Peptide self-association by PICUP cross-linking and gel electrophoresis; assay type: physicochemical; settings: PICUP cross-linking, gel electrophoresis
Description: Peptides were also cross-linked by PICUP and analyzed for self-association. Twenty microliters of peptides at 36 μM in PBSA was incubated for 1 hr at 37° C. and cross-linked. Cross-linked samples were then heated at 95° C. for 5 min and separated on a 10-20% Tris-Tricine gradient gel. Peptides were visualized by silver staining (SilverStain Kit, Pierce, Rockford, Ill.).

Aβ (1-40) [6] = molecular target: T1, Aβ (1-40); assay: Thioflavin T (ThT) fluorescence assay of Aβ aggregation; assay type: biochemical; settings: 28 μM Aβ, 2.8 μM peptide
Description: as §1
ThT stock solutions were prepared in PBSA and filtered through 0.22 μm filter. The concentration of ThT was measured using an extinction coefficient of 26,620 M^−1 cm^−1 at 416 nm and the stock solution was diluted to 10 μM in PBSA prior to the measurement. Aβ alone (28 μM) and with peptides (2.8 μM) or mTTR (2.8 μM) were prepared in PBSA and incubated for 48 hr at 37° C. After 1, 5, 24 and 48 hr of incubation, 10 μL of each sample was mixed with 130 μL of 10 μM ThT and analyzed. ThT fluorescence emission was measured using a QuantaMaster spectrofluometer (PTI, Birmingham, N.J.), with excitation at 440 nm and emission spectra recorded from 460 to 500 nm. Three serial spectra were averaged for each sample and the background signal of ThT in PBSA was subtracted from the averaged data. Fluorescence intensity at a wavelength of 480 nm was compared.

Aβ (1-40) [7] = molecular target: T1, Aβ (1-40); assay: Proteolytic fragmentation assay of Aβ with peptides (Proteinase K); assay type: binding; settings: 3:1 molar excess of peptides, detection by 4G8
Description: as §1
The proteolytic fragmentation assay of Aβ with peptides was performed as previously described in detail (Cho et al., 2014). Briefly, Aβ alone (20 μM) or with peptide (60 μM) was incubated for 24 hr at 37° C. Proteinase K (Promega, Madison, Wis.) was added to the samples at a final concentration of 0.5 μg/mL and samples were dotted onto a 0.45 μm nitrocellulose membrane (Pierce) after incubation for 0, 5, 10, 20, 30, 40, 50, 60, 90 and 120 min. Membranes were then reacted with monoclonal antibodies against Aβ (6E10, Covance, against Aβ (3-8) and 4G8 against Aβ (18-22)) and visualized.

Substance: SKVVT^DPPRYTIAALLSPYSYSQ [CG3] (chain 1 SKVVT[dP]PRYTIAALLSPYSYSQ; chain 2 SKVVT[dP]PRYTIAALLSPYSYSQ; also: head-to-tail to a chain's N/C-terminus) [cyclic 22-mer of TTR residues 104-123 grafted onto DPro-Pro template]
- interaction with freshly prepared versus pre-aggregated Aβ (Aβ (1-40) [1]; freshly prepared or 1 day pre-aggregated Aβ): much less interaction with freshly prepared Aβ than with pre-aggregated Aβ
- interaction with Aβ (shift in cross-linked Aβ size distribution) (Aβ (1-40) [1]; pre-aggregated Aβ, 10:1 molar excess of Aβ, Western blot 4G8): interact with Aβ
- size of particles detected (Aβ (1-40) [2]): very large (microns)
- effect on Aβ aggregation (hydrodynamic diameter, total scattered intensity) (Aβ (1-40) [3]; 14 μM peptide): increased the size of aggregates of Aβ
- intensity of scattered light of Aβ-peptide mixture (Aβ (1-40) [3]; 14 μM peptide): enhanced the intensity of scattered light similarly
- mean hydrodynamic size of Aβ-peptide mixture (Aβ (1-40) [3]; after 5 hr, 10:1 molar excess of Aβ, 37° C.): 1000 nm
- light scattering of peptide alone [4]: scattered light above background
- scattering intensity relative to G16 [4]: about 5 times
- self-association by PICUP [5]: a fraction of CG3 forms a SDS-stable dimer
- ThT fluorescence intensity of Aβ with peptide (Aβ (1-40) [6]; after 5 hr): remained low
- ThT fluorescence intensity of Aβ with peptide (Aβ (1-40) [6]; after 24 hr): fluorescence still remained low
- effect on Aβ degradation by protease (Aβ (1-40) [7]): Aβ degradation was delayed; also recorded: most effective in inhibiting degradation
